Results from patent US20140194320, “METHOD FOR PREPARING NUCLEIC ACID APTAMER” (TAGCYX BITOECNOLOGIES, published 2014).

Tests used:
[1] = target: T1, NF-κB p50 (rhNF-κB) (Homo sapiens, UniProt P19838 P19838:1-433); experiment: SPR; PBS, 0.05% Nonidet P-40, 2.5 mM DTT, 25 C; Example 3 text gives range 5.7 to 8.7; details: tags: Promega; chain copies: 2 (inferred); hairpin stem with two G-T and three G-A pairs
Method: (§1) The binding ability of each NF-κB p50-binding DNA aptamer clone for NF-κB p50 was determined by the surface plasmon resonance (SPR) method using BIACORE 3000 (GE Healthcare Japan Corp.). The assay in the SPR method was conducted with a temperature set to 25° C. using buffer A as a running buffer. Specifically, DNA probes (21 mer) (SEQ ID NO: 30) each having a nucleotide sequence complementary to the 3′-terminal region of each clone and having a biotinylated base at the 5′ end were immobilized onto a streptavidin-coated sensor chip (SA chip). Then, 60 μL (corresponding to 12 minutes) of a solution of each single-stranded DNA clone (95 mer) diluted to 50 nM with PBS was injected thereto at a flow rate of 5 μL/min to immobilize the clone onto the SA chip through hybridization with the probe.
(§2) Single-stranded DNA variants (68 mer, SEQ ID NOs: 31, 32, and 33; free from a sequence comprising the 5′-terminal primer sequence region) of each NF-κB p50-binding DNA aptamer clone were analyzed for their binding ability by the same SPR method as in Example 2. […] These single-stranded DNA variants used in binding analysis were prepared by chemical synthesis and gel purification. In the diagram, Cont-68 (SEQ ID NO: 34) corresponds to a single-stranded DNA in which the strands of a double-stranded DNA comprising a known NF-κB p50-binding consensus sequence were linked via adenine tetraloop (AAAA). […]

[2] = target: T1, NF-κB p50 (rhNF-κB); experiment: SPR; PBS, 0.05% Nonidet P-40, 2.5 mM DTT, 25 C; dissociation rate 10 times larger than 5R01-68; details: tags: Promega; chain copies: 2 (inferred); hairpin
[3] = target: T1, NF-κB p50 (rhNF-κB); experiment: SPR; PBS, 0.05% Nonidet P-40, 2.5 mM DTT, 25 C; details: tags: Promega, chain copies: 2 (inferred)
Method: as §1
Single-stranded DNA variants (68 mer, SEQ ID NOs: 31, 32, and 33; free from a sequence comprising the 5′-terminal primer sequence region) of each NF-κB p50-binding DNA aptamer clone were analyzed for their binding ability by the same SPR method as in Example 2. […] These single-stranded DNA variants used in binding analysis were prepared by chemical synthesis and gel purification. In the diagram, Cont-68 (SEQ ID NO: 34) corresponds to a single-stranded DNA in which the strands of a double-stranded DNA comprising a known NF-κB p50-binding consensus sequence were linked via adenine tetraloop (AAAA). For SPR analysis, each of these single-stranded DNAs was immobilized onto the SA chip through hybridization with probes by the injection of 20 μL (corresponding to 1 minute) of a solution of each DNA fragment (68 mer) diluted to 250 nM with PBS at a flow rate of 20 μL/min.

[4] = target: T1, NF-κB p50 (rhNF-κB); experiment: SPR; PBS, 0.05% Nonidet P-40, 2.5 mM DTT, 25 C; Example 2 text gives range 2.1 to 3.5 pM; details: tags: Promega; chain copies: 2 (inferred); hairpin stem with non-Watson-Crick pairs; 95 mer
Method: as §1

[5] = target: T1, NF-κB p50 (rhNF-κB); experiment: SPR; PBS, 0.05% Nonidet P-40, 2.5 mM DTT, 25 C; immobilized by hybridization to biotinylated probe; details: tags: Promega; chain copies: 2 (inferred); hairpin stem with non-Watson-Crick G-A and G-T pairs
Method: as §1

[6] = target: T1, NF-κB p50 (rhNF-κB); experiment: SPR; PBS, 0.05% Nonidet P-40, 2.5 mM DTT, 25 C; natural consensus hairpin control; details: tags: Promega, chain copies: 2 (inferred), known NF-κB consensus duplex strands linked via AAAA tetraloop
Method: as §1, §2

T1 sequence (P19838 1-433, one chain of several): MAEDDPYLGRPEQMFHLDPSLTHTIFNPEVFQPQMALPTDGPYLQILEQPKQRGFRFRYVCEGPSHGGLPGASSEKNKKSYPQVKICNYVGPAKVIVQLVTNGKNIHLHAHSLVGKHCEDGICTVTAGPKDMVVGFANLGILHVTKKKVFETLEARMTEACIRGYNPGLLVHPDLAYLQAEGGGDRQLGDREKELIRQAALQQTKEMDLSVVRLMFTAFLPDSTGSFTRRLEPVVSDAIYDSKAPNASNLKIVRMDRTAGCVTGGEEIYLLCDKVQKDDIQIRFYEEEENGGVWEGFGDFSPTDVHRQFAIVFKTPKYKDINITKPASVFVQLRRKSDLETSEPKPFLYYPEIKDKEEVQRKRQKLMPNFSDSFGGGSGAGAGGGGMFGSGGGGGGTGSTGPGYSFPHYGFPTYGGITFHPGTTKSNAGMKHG

B1: 5R01-68 (ssDNA)
DNA: CGGGGAATCACTGTAGGGACATTACGCAGGGGATTCACTAGGAGTGGACTGATACGATCGATTGACAG
**Q.** For B1, which Kd [1] is on record?
**A.** Its Kd is 5.4 pM.

B2: 5R01mut-68 (ssDNA)
DNA: CGGGGAATCCCCGTAGGGACATTACGCCGGGGATTCCCCAGGAGTGGACTGATACGATCGATTGACAG
**Q.** For B2, which Kd [2] is on record?
**A.** The Kd was 140 pM.

B3: 5R14-68 (ssDNA)
DNA: CACGGGGTTTCACTGTTTCGTAGATTGCATAAGGGGAAACACTGTGGACTGATACGATCGATTGACAG
**Q.** With B3 as the binder, how does the Kd ([3]; hairpin) read?
**A.** The Kd was 8.7 pM.

B4: 5R14 (ssDNA)
DNA: GTAGTCACTAATCCGTTCGAGTCATGCCACGGGGTTTCACTGTTTCGTAGATTGCATAAGGGGAAACACTGTGGACTGATACGATCGATTGACAG
**Q.** Which Kd [4] does the source give for B4 here?
**A.** Its Kd is 6.6 pM.

B5: 5R01 (ssDNA)
DNA: GTAGTCACTAATCCGTTCGAGTCATGCCGGGGAATCACTGTAGGGACATTACGCAGGGGATTCACTAGGAGTGGACTGATACGATCGATTGACAG
**Q.** B5 was tested. Which Kd [5] did it give?
**A.** Its Kd is 3.5 pM.

B6: 5R05 (ssDNA)
DNA: GTAGTCACTAATCCGTTCGAGTCATGCTGTAACGTAGGGGTTTCACCAACACTGCGGGAAACACTGAAGCGTGGACTGATACGATCGATTGACAG
**Q.** How did the Kd ([3]; hairpin stem with non-Watson-Crick pairs, 95 mer) turn out when B6 was run?
**A.** The Kd was 2.1 pM.

B7: Cont-68 (ssDNA)
DNA: CCTTGAAGGGATTTCCCTCCAAAAGGAGGGAAATCCCTTCAAGGTGGACTGATACGATCGATTGACAG
**Q.** How did the Kd [6] turn out when B7 was run?
**A.** The Kd was 3500 pM.

B8: 5R05-68 (ssDNA)
DNA: TGTAACGTAGGGGTTTCACCAACACTGCGGGAAACACTGAAGCGTGGACTGATACGATCGATTGACAG
**Q.** How did the Kd ([3]; hairpin) turn out when B8 was run?
**A.** Its Kd is 7.2 pM.
